Columns and labels:
[1] = biological target: T1, properdin (purified human complement component) (human, UniProt P27918 28-469); assay: ELISA, coated CAT, properdin in solution, detected with goat α-properdin Ab
T1 construct: Bought purified protein; also called fP

[2] = biological target: T1, properdin (purified human complement …); assay: solid-phase saturation binding ELISA, S20NS coated (10 ng/well), properdin titrated

T1 sequence (P27918 28-469 limits assumed): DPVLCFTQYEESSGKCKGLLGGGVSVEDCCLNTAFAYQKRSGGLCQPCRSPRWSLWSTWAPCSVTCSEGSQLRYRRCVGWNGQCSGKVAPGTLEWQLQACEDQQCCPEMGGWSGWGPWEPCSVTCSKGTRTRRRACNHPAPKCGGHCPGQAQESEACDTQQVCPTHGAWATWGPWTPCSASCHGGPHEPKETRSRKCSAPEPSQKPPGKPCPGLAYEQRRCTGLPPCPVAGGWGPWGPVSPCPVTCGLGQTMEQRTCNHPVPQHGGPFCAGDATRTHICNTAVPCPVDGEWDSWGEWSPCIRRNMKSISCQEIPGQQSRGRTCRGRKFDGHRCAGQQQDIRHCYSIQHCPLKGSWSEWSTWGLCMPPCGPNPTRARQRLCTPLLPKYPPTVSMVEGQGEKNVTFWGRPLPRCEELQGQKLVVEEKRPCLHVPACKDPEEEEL

B1: chloramphenicol acetyl-transferase protein containing C-terminal V5-epitope and 6x-histidine tags (CAT) (enzyme)
chain: MEKKITGYTTVDISQWHRKEHFEAFQSVAQCTYNQTVQLDITAFLKTVKKNKHKFYPAFIHILARLMNAHPEFRMAMKDGELVIWDSVHPCYTVFHEQTETFSSLWSEYHDDFRQFLHIYSQDVACYGENLAYFPKGFIENMFFVSANPWVSFTSFDLNVANMDNFFAPVFTMGKYYTQGDKVLMPLAIQVHHAVCDGFHVGRMLNELQQYCDEWQGGA
notes: Negative control protein expressed from the same expression vector as S20NS in High Five cells
- binding result [1]: no binding

B2: S20NS (Salp20 protein containing C-terminal V5-epitope and 6x-histidine tags) (other)
chain: SEDGLEQDSKVETTTQNLYERHYRNNSGLCGAQYRNSSHAEAVYNCTLSLLPPKVNETWEGIRHRINKSIPEFVRLMCNFSVVMPEDFYLVYMGSNGNSYSEEDEESTDTDKDSKTGSSAAVEVTEKLILKAEENCTAHITGWTTEAPTTLEPTETQFEAIS
modifications: multiple N- and O-linked glycans (insect cell expressed)
notes: Recombinant protein secreted from stably transfected High Five insect cells and purified; also called I. scapularis salivary protein 20
- Kd [2]: 0.669 nM

From patent US20110014218A1 (UNIVERSITY OF NORTH CAROLINA AT CHAPEL HILL, published 2011)
